The record followed here is publication PMC4211651.

Broadly, the Kd is the equilibrium constant for the complex coming apart.

The experiment has as its target native porcine cardiac thin filaments (F-actin plus regulatory proteins, troponin, and tropomyosin) (porcine) (UniProt P42639). The experiment in a line: co-sedimentation.

Consider “human cardiac myosin binding protein-C N-terminal domains C0C1 (domain or fragment)”, for which the Kd turned out to be 2200 nM.
Consider “mouse cardiac myosin binding protein-C N-terminal domains C0C1 (domain or fragment)”, for which the Kd was 2200 nM.
